B1: AP-Nogo66-His, wild type (alkaline phosphatase fusion of the NOGO66 domain of reticulon-4) [human] / RTNR-FLAG-His (Nogo66 receptor) on HEK293T cells [not stated] (parent)
chain 1: RIYKGVIQAIQKSDEGHPFRAYLESEVAISEELVQKYSNSALGHVNCTIKELRRLFLVDDLVDSLK
chain 2: CPGACVCYNEPKVTTSCPQQGLQAVPVGIPAASQRIFLHGNRISHVPAASFRACRNLTILWLHSNVLARIDAAAFTGLALLEQLDLSDNAQLRSVDPATFHGLGRLHTLHLDRCGLQELGPGLFRGLAALQYLYLQDNALQALPDDTFRDLGNLTHLFLHGNRISSVPERAFRGLHSLDRLLLHQNRVAHVHPHAFRDLGRLMTLYLFANNLSALPTEALAPLRALQYLRLNDNPWVCDCRARPLWAWLQKFRGSSSEVPCSLPQRLAGRDLKRLAANDLQGCAVATGPYHPIWTGRATDEEPLGLPKCCQPDAADKASVLEPGRPASAGNALKGRVPPGDSPPGNGSGPRHINDSPFGTLPGSAEPPLTAVRPEGSEPPGFPTSGPRRRPGCSRKNRTRSHCRLGQAGSGGGGTGDSEGS

Variants of: B1
Experiment: AP (alkaline phosphatase fusion) receptor binding assay on HEK293T cells overexpressing RTNR
Conditions: with RTNR-FLAG-His (Nogo66 receptor) on HEK293T cells; RTNR OE HEK293T cells; n = 3 biological replicates, mean ± s.d.; parent: 0.00087; read off a plot

Q: chain 1 RIYKGVIQAIQKSDEGHPFRAYLESEVAISEELVQKYSNSALGHVNWTIKELRRLFLVDDLVDSLK [chain 1 C47W] was tested. Which response (min^-1 (absorbance/time)) did it give?
A: 0.0015

— article PMC13423832
